# T1: DmcN-IIIB (Drosophila melanogaster, UniProt Q9W197)
# T1 construct: gene cN-IIIB; full length 1-319; His6-SUMO fusion from pET-SUMOadapt in E. coli Rosetta 2(DE3), tag cleaved (stated for crystallization)
# T1 sequence (Q9W197 1-319): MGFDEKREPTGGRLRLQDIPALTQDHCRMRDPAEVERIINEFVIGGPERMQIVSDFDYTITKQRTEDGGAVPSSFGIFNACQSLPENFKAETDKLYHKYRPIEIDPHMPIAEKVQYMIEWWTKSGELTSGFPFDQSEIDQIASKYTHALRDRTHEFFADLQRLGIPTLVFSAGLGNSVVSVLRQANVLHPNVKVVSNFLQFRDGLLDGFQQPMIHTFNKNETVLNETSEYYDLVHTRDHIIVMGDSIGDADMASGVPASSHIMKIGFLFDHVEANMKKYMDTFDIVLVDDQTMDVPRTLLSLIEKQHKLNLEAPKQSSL
# How the values were obtained:
# [1] = target: T1, DmcN-IIIB; experiment: X-ray crystal structure, […] Å; type: binding; conditions: co-crystallized with MgF3− and Mg2+; pH 7.5; active site
# [2] = target: T1, DmcN-IIIB; experiment: X-ray crystal structure, […] Å; type: binding; conditions: co-crystallized, no MgF3− density; pH 7.5; active site
# [3] = target: T2, HscN-IIIA (Homo sapiens, UniProt Q9H0P0); conditions: 37 °C; preincubated with 5 mM DTT
# T2 construct: gene NT5C3A
# [4] = substrate: Nc1ccn([C@@H]2O[C@H](COP(=O)(O)O)[C@@H](O)[C@H]2O)c(=O)n1; experiment: colorimetric malachite green phosphate assay; type: biochemical, Drosophila melanogaster; conditions: 25 °C
# [5] = substrate: C[n+]1cn([C@@H]2O[C@H](COP(=O)(O)O)[C@@H](O)[C@H]2O)c2nc(N)[nH]c(=O)c21; experiment: colorimetric malachite green phosphate assay; type: biochemical, Drosophila melanogaster; conditions: 25 °C
# [6] = substrate: C[n+]1cn([C@@H]2O[C@H](COP(=O)(O)O)[C@@H](O)[C@H]2O)c2nc(N)[nH]c(=O)c21; experiment: colorimetric malachite green phosphate assay; type: biochemical, Homo sapiens; conditions: 37 °C, preincubated with 5 mM DTT
# [7] = substrate: Nc1ccn([C@@H]2O[C@H](COP(=O)(O)O)[C@@H](O)[C@H]2O)c(=O)n1; experiment: purified protein; conditions: 37 °C, preincubated with 5 mM DTT
molecule,measurement,setting,value
C[n+]1cn([C@@H]2O[C@H](CO)[C@@H](O)[C@H]2O)c2nc(N)[nH]c(=O)c21 [7-methylguanosine],"X-ray crystal structure, 1.65 Å",[1],crystal structures of ^DmcN-IIIB bound to 7-methylguanosine or cytidine have been deposited
Nc1ccn([C@@H]2O[C@H](CO)[C@@H](O)[C@H]2O)c(=O)n1 [cytidine],"X-ray crystal structure, 2.05 Å",[2],crystal structures of ^DmcN-IIIB bound to 7-methylguanosine or cytidine have been deposited
C[n+]1cn([C@@H]2O[C@H](COP(=O)(O)O)[C@@H](O)[C@H]2O)c2nc(N)[nH]c(=O)c21 [m^7GMP],Km,[3],15 µM
Nc1ccn([C@@H]2O[C@H](COP(=O)(O)O)[C@@H](O)[C@H]2O)c(=O)n1 [CMP],Km,[3],80 µM
"DmcN-IIIB (Drosophila melanogaster) (protein, full length 1-319; His6-SUMO fusion from pET-SUMOadapt in E. coli Rosetta 2(DE3), tag cleaved (stated for crystallization)) MGFDEKREPTGGRLRLQDIPALTQDHCRMRDPAEVERIINEFVIGGPERMQIVSDFDYTITKQRTEDGGAVPSSFGIFNACQSLPENFKAETDKLYHKYRPIEIDPHMPIAEKVQYMIEWWTKSGELTSGFPFDQSEIDQIASKYTHALRDRTHEFFADLQRLGIPTLVFSAGLGNSVVSVLRQANVLHPNVKVVSNFLQFRDGLLDGFQQPMIHTFNKNETVLNETSEYYDLVHTRDHIIVMGDSIGDADMASGVPASSHIMKIGFLFDHVEANMKKYMDTFDIVLVDDQTMDVPRTLLSLIEKQHKLNLEAPKQSSL",Km,[4],48 µM
same,kcat,[4],12 s⁻¹
same,kcat/Km,[4],242000 M⁻¹ s⁻¹
same,Km,[5],12 µM
same,kcat,[5],4.8 s⁻¹
same,kcat/Km,[5],403000 M⁻¹ s⁻¹
"DmcN-IIIB (Drosophila melanogaster; G76N/W121Y) (protein, full length 1-319; His6-SUMO fusion from pET-SUMOadapt in E. coli Rosetta 2(DE3), tag cleaved (stated for crystallization)) MGFDEKREPTGGRLRLQDIPALTQDHCRMRDPAEVERIINEFVIGGPERMQIVSDFDYTITKQRTEDGGAVPSSFNIFNACQSLPENFKAETDKLYHKYRPIEIDPHMPIAEKVQYMIEWYTKSGELTSGFPFDQSEIDQIASKYTHALRDRTHEFFADLQRLGIPTLVFSAGLGNSVVSVLRQANVLHPNVKVVSNFLQFRDGLLDGFQQPMIHTFNKNETVLNETSEYYDLVHTRDHIIVMGDSIGDADMASGVPASSHIMKIGFLFDHVEANMKKYMDTFDIVLVDDQTMDVPRTLLSLIEKQHKLNLEAPKQSSL",Km,[5]; variant FNWY,8 µM
same,kcat,[5]; variant FNWY,0.3 s⁻¹
same,kcat/Km,[5]; variant FNWY,37800 M⁻¹ s⁻¹
"DmcN-IIIB (Drosophila melanogaster; F75H) (protein, full length 1-319; His6-SUMO fusion from pET-SUMOadapt in E. coli Rosetta 2(DE3), tag cleaved (stated for crystallization)) MGFDEKREPTGGRLRLQDIPALTQDHCRMRDPAEVERIINEFVIGGPERMQIVSDFDYTITKQRTEDGGAVPSSHGIFNACQSLPENFKAETDKLYHKYRPIEIDPHMPIAEKVQYMIEWWTKSGELTSGFPFDQSEIDQIASKYTHALRDRTHEFFADLQRLGIPTLVFSAGLGNSVVSVLRQANVLHPNVKVVSNFLQFRDGLLDGFQQPMIHTFNKNETVLNETSEYYDLVHTRDHIIVMGDSIGDADMASGVPASSHIMKIGFLFDHVEANMKKYMDTFDIVLVDDQTMDVPRTLLSLIEKQHKLNLEAPKQSSL",Km,[4]; variant HGWW,490 µM
same,kcat,[4]; variant HGWW,8 s⁻¹
same,kcat/Km,[4]; variant HGWW,16000 M⁻¹ s⁻¹
same,Km,[5]; variant HGWW,40 µM
same,kcat,[5]; variant HGWW,4.2 s⁻¹
same,kcat/Km,[5]; variant HGWW,106000 M⁻¹ s⁻¹
"DmcN-IIIB (Drosophila melanogaster; G76N) (protein, full length 1-319; His6-SUMO fusion from pET-SUMOadapt in E. coli Rosetta 2(DE3), tag cleaved (stated for crystallization)) MGFDEKREPTGGRLRLQDIPALTQDHCRMRDPAEVERIINEFVIGGPERMQIVSDFDYTITKQRTEDGGAVPSSFNIFNACQSLPENFKAETDKLYHKYRPIEIDPHMPIAEKVQYMIEWWTKSGELTSGFPFDQSEIDQIASKYTHALRDRTHEFFADLQRLGIPTLVFSAGLGNSVVSVLRQANVLHPNVKVVSNFLQFRDGLLDGFQQPMIHTFNKNETVLNETSEYYDLVHTRDHIIVMGDSIGDADMASGVPASSHIMKIGFLFDHVEANMKKYMDTFDIVLVDDQTMDVPRTLLSLIEKQHKLNLEAPKQSSL",Km,[4]; variant FNWW,51 µM
same,kcat,[4]; variant FNWW,8 s⁻¹
same,kcat/Km,[4]; variant FNWW,166000 M⁻¹ s⁻¹
same,Km,[5]; variant FNWW,2 µM
same,kcat,[5]; variant FNWW,1.1 s⁻¹
same,kcat/Km,[5]; variant FNWW,545000 M⁻¹ s⁻¹
"DmcN-IIIB (Drosophila melanogaster; W121Y) (protein, full length 1-319; His6-SUMO fusion from pET-SUMOadapt in E. coli Rosetta 2(DE3), tag cleaved (stated for crystallization)) MGFDEKREPTGGRLRLQDIPALTQDHCRMRDPAEVERIINEFVIGGPERMQIVSDFDYTITKQRTEDGGAVPSSFGIFNACQSLPENFKAETDKLYHKYRPIEIDPHMPIAEKVQYMIEWYTKSGELTSGFPFDQSEIDQIASKYTHALRDRTHEFFADLQRLGIPTLVFSAGLGNSVVSVLRQANVLHPNVKVVSNFLQFRDGLLDGFQQPMIHTFNKNETVLNETSEYYDLVHTRDHIIVMGDSIGDADMASGVPASSHIMKIGFLFDHVEANMKKYMDTFDIVLVDDQTMDVPRTLLSLIEKQHKLNLEAPKQSSL",Km,[4]; variant FGWY,14 µM
same,kcat,[4]; variant FGWY,6 s⁻¹
same,kcat/Km,[4]; variant FGWY,410000 M⁻¹ s⁻¹
"DmcN-IIIB (Drosophila melanogaster; F75H/W121Y) (protein, full length 1-319; His6-SUMO fusion from pET-SUMOadapt in E. coli Rosetta 2(DE3), tag cleaved (stated for crystallization)) MGFDEKREPTGGRLRLQDIPALTQDHCRMRDPAEVERIINEFVIGGPERMQIVSDFDYTITKQRTEDGGAVPSSHGIFNACQSLPENFKAETDKLYHKYRPIEIDPHMPIAEKVQYMIEWYTKSGELTSGFPFDQSEIDQIASKYTHALRDRTHEFFADLQRLGIPTLVFSAGLGNSVVSVLRQANVLHPNVKVVSNFLQFRDGLLDGFQQPMIHTFNKNETVLNETSEYYDLVHTRDHIIVMGDSIGDADMASGVPASSHIMKIGFLFDHVEANMKKYMDTFDIVLVDDQTMDVPRTLLSLIEKQHKLNLEAPKQSSL",Km,[4]; variant HGWY,93 µM
same,kcat,[4]; variant HGWY,3 s⁻¹
same,kcat/Km,[4]; variant HGWY,32500 M⁻¹ s⁻¹
same,Km,[5]; variant HGWY,2 µM
same,kcat,[5]; variant HGWY,1.5 s⁻¹
same,kcat/Km,[5]; variant HGWY,755000 M⁻¹ s⁻¹
"DmcN-IIIB (Drosophila melanogaster; F75H/G76N/W121Y) (protein, full length 1-319; His6-SUMO fusion from pET-SUMOadapt in E. coli Rosetta 2(DE3), tag cleaved (stated for crystallization)) MGFDEKREPTGGRLRLQDIPALTQDHCRMRDPAEVERIINEFVIGGPERMQIVSDFDYTITKQRTEDGGAVPSSHNIFNACQSLPENFKAETDKLYHKYRPIEIDPHMPIAEKVQYMIEWYTKSGELTSGFPFDQSEIDQIASKYTHALRDRTHEFFADLQRLGIPTLVFSAGLGNSVVSVLRQANVLHPNVKVVSNFLQFRDGLLDGFQQPMIHTFNKNETVLNETSEYYDLVHTRDHIIVMGDSIGDADMASGVPASSHIMKIGFLFDHVEANMKKYMDTFDIVLVDDQTMDVPRTLLSLIEKQHKLNLEAPKQSSL",Km,[4]; variant HNWY,315 µM
same,kcat,[4]; variant HNWY,9 s⁻¹
same,kcat/Km,[4]; variant HNWY,28800 M⁻¹ s⁻¹
same,Km,[5]; variant HNWY,11 µM
same,kcat,[5]; variant HNWY,0.5 s⁻¹
same,kcat/Km,[5]; variant HNWY,49500 M⁻¹ s⁻¹
HscN-IIIB (Homo sapiens) (protein) MAEEVSTLMKATVLMRQPGRVQEIVGALRKGGGDRLQVISDFDMTLSRFAYNGKRCPSSYNILDNSKIISEECRKELTALLHHYYPIEIDPHRTVKEKLPHMVEWWTKAHNLLCQQKIQKFQIAQVVRESNAMLREGYKTFFNTLYHNNIPLFIFSAGIGDILEEIIRQMKVFHPNIHIVSNYMDFNEDGFLQGFKGQLIHTYNKNSSACENSGYFQQLEGKTNVILLGDSIGDLTMADGVPGVQNILKIGFLNDKVEERRERYMDSYDIVLEKDETLDVVNGLLQHILCQGVQLEMQGP,Km,[6],8 µM
same,kcat,[6],0.5 s⁻¹
same,kcat/Km,[6],64500 M⁻¹ s⁻¹
same,Km,[7],79 µM
same,kcat,[7],7 s⁻¹
same,kcat/Km,[7],87100 M⁻¹ s⁻¹
